{
  "source": "paper PMC5025769",
  "about": "“A highly efficient sorbitol dehydrogenase from Gluconobacter oxydans G624 and improvement of its stability through immobilization” (Scientific Reports, 2016)",
  "molecules": {"B1": {"name": "sorbitol dehydrogenase (GoSLDH) from Gluconobacter oxydans G624 (enzyme, UniProt Q9KWR5 1-485, looked up)", "chain": "MITRETLKSLPANVQAPPYDIDGIKPGIVHFGVGNFFRAHEAFYVEQILEHAPDWAIVGVGLTGSDRSKKKAEEFKAQDCLYSLTETAPSGKSTVRVMGALRDYLLAPADPEAVLKHLVDPAIRIVSMTITEGGYNINETTGAFDLENAAVKADLKNPEKPSTVFGYVVEALRRRWDAGGKAFTVMSCDNLRHNGNVARKAFLGYAKARDPELAKWIEENATFPNGMVDRITPTVSAEIAKKLNAASGLDDDLPLVAEDFHQWVLEDQFADGRPPLEKAGVQMVGDVTDWEYVKIRMLNAGHVMLCFPGILVGYENVDDAIEDSELLGNLKNYLNKDVIPTLKAPSGMTLEGYRDSVISRFSNKAMSDQTLRIASDGCSKVQVFWTETVRRAIEDKRDLSRIAFGIASYLEMLRGRDEKGGTYESSEPTYGDAEWKLAKADDFESSLKLPAFDGWRDLDTSELDQKVIVLRKIIREKGVKAAIPA", "notes": "sorbitol dehydrogenase (SLDH) of Gluconobacter oxydans G624; complete 1455-bp codon-optimized gene; molecular mass 53.64 kDa by SDS-PAGE; The abstract speaks of the complete 1455-bp gene, the methods of 1.458 kb; also called recombinant GoSLDH; polyol-specific long-chain dehydrogenase from G. oxydans G624; source: E. coli BL21 (DE3)-CodonPlus RIL, pET-28(a), purified (Ni-NTA Superflow column)"}},
  "key": {"[1]": {"target": "T1, GoSLDH (sorbitol dehydrogenase) (Gluconobacter oxydans, UniProt Q9KWR5)", "T1 construct": "purified 6x His-tagged recombinant GoSLDH", "T1 sequence (Q9KWR5 1-485)": "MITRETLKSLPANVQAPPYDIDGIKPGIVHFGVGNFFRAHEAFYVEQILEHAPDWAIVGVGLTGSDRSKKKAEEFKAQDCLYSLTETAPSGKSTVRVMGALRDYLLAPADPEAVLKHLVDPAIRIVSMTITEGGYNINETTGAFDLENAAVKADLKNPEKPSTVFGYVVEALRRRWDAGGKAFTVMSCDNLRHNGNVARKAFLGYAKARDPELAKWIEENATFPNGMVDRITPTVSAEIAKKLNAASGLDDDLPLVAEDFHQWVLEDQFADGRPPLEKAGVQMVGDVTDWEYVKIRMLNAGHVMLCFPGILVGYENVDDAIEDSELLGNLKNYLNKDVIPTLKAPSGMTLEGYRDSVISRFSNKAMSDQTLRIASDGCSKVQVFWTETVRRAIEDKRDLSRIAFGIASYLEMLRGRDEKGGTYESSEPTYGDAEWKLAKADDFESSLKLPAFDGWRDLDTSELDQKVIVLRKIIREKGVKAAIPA", "test": "substrate specificity assay at […]", "format": "biochemical"}, "[2]": {"target": "GoSLDH (sorbitol dehydrogenase) (Gluconobacter oxydans, UniProt Q9KWR5, K294Q)", "test": "isothermal titration calorimetry, […] °C", "format": "binding"}, "[3]": {"target": "T2, PfMDH (mannitol dehydrogenase) (Pseudomonas fluorescens, UniProt O08355, K295Q)", "T2 construct": "gene mtlD", "T2 sequence (O08355 entry or part of it K295Q)": "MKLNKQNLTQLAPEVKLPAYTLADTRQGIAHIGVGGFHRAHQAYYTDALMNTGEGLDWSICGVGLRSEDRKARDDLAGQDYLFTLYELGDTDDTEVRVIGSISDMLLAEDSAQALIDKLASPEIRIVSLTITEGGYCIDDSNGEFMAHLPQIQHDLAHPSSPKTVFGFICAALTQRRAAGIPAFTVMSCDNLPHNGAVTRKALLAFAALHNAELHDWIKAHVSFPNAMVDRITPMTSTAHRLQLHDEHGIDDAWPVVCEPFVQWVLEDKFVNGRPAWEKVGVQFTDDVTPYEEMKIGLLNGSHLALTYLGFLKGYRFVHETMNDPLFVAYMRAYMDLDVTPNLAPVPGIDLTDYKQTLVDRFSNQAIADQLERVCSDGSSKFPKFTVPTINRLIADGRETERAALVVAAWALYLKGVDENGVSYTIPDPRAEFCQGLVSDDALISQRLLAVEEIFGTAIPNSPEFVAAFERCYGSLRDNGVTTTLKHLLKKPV", "test": "isothermal titration calorimetry, […] °C", "format": "binding"}, "[4]": {"substrate": "OC[C@@H](O)[C@@H](O)[C@H](O)[C@@H](O)CO", "test": "purified protein", "format": "biochemical, Gluconobacter oxydans", "conditions": "NADP^+"}, "[5]": {"substrate": "NC(=O)c1ccc[n+]([C@@H]2O[C@H](COP(=O)(O)OP(=O)(O)OC[C@H]3O[C@@H](n4cnc5c(N)ncnc54)[C@H](OP(=O)(O)O)[C@@H]3O)[C@@H](O)[C@H]2O)c1", "test": "purified protein", "conditions": "varied: cofactor"}, "[6]": {"target": "the molecule itself", "test": "SEC; Bio-Sil SEC-250 column (300 x 7.8 mm) on HPLC; mobile phase pH 6.8, 50 mM Na2HPO4, 50 mM NaH2PO4, 50 mM NaCl, 10 mM NaN3; 1.0 mL/min; quaternary structure from comparison of molecular weights by HPLC and SDS-PAGE"}},
  "data": [
    {"molecule": "OC[C@@H](O)[C@@H](O)[C@H](O)[C@H](O)CO", "note": "[mannitol]", "values": [
      {"measurement": "substrate specificity assay at 200 mM", "setting": "[1]", "value": "GoSLDH is highly specific towards D-sorbitol, mannitol, and D-arabinitol (Table S2)"}
    ]},
    {"molecule": "OC[C@@H](O)[C@@H](O)[C@H](O)[C@@H](O)CO", "note": "[D-sorbitol]", "values": [
      {"measurement": "Kd", "setting": "[2]", "value": 96, "unit": "µM"},
      {"measurement": "Kd", "setting": "[3]", "value": 278, "unit": "µM"}
    ]},
    {"molecule": "B1", "values": [
      {"measurement": "Km", "setting": "[4]", "value": 38.9, "unit": "mM"},
      {"measurement": "kcat", "setting": "[4]", "value": 3820, "unit": "s⁻¹"},
      {"measurement": "kcat/Km", "setting": "[4]", "value": 98100, "unit": "M⁻¹ s⁻¹"},
      {"measurement": "Km", "setting": "[5]", "value": 0.0882, "unit": "mM"},
      {"measurement": "stoichiometry N", "setting": "[6]", "value": 2}
    ]}
  ]
}
